Data as given in the supplement of paper PMC10724198.
± gives the standard deviation of the averaged measurements.

system: Saccharomyces cerevisiae; experiment: protein stability index of tFT-peptide fusion (C-terminal peptide) (PSI (0-1 scale)); higher = more stable (slower turnover); details: genetic background: wild type; temperature: 30 C
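Further: PSI is a weighted mean of sequencing reads over stability bins, variants kept only with over 10 reads, mCherry proximal and sfGFP distal, peptide attached via GGGS linker.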

Sequence | protein stability index
RIVMSSDHTFQG | 0.635 ± 0.0072
RKAKHWKNKIQK | 0.737 ± 0.048
RKCPRVCVFQSS | 0.557 ± 0.017
RKDEKEMVRKTK | 0.682 ± 0.061
RKGRETGTKERE | 0.671 ± 0.036
RKHIANPTDQND | 0.673 ± 0.019
RKHLIPRPTSNP | 0.71 ± 0.011
RKICINIEKKGE | 0.682 ± 0.018
RKIRIDKQRKVK | 0.716 ± 0.033
RKKKKKLKKKTE | 0.66 ± 0.082
RKKRNKTQTSKT | 0.6936 ± 0.00054
RKKRYRRRKIKK | 0.773 ± 0.025
RKLFLKNELGSK | 0.7 ± 0.14
RKLKNKTKREII | 0.653 ± 0.0068
RKMRNGRKRKKK | 0.62 ± 0.025
RKNNTVIKQIKR | 0.656 ± 0.054
RKRKIKQYITTT | 0.725 ± 0.043
RKVGRVGGGRLE | 0.637 ± 0.018
RKVHNVETQITA | 0.648 ± 0.018
RKVRRTRNSEGE | 0.726 ± 0.011
RLAAPPRYPPLP | 0.731 ± 0.12
RLATRPILDLPP | 0.519 ± 0.026
RLAVLKGWTTFV | 0.567 ± 0.039
RLAYSSGKAFRV | 0.702 ± 0.012
RLCPGAALAFRG | 0.718 ± 0.12
RLCRQPPSLLPP | 0.6958 ± 0.0053

Sequence | protein stability index
RLEFSFHPFFLS | 0.658 ± 0.02
RLFAPSHSSSLP | 0.733 ± 0.055
RLFLGSIGTLTS | 0.673 ± 0.046
RLFLSFVDRRSL | 0.629 ± 0.06
RLFSPFTLPPFF | 0.739 ± 0.063
RLFSYLSTLSFI | 0.727 ± 0.053
RLGGAACLRSEC | 0.627 ± 0.04
RLGLVITKLGVY | 0.541 ± 0.0081
RLGNVYSTSFQC | 0.618 ± 0.012
RLGRGRRGMRWL | 0.659 ± 0.025
RLHFSSPLLHPP | 0.601 ± 0.041
RLHPSFPPPPPQ | 0.704 ± 0.029
RLIGLLRKTSKK | 0.719 ± 0.089
RLLSGLAHRATR | 0.672 ± 0.032
RLNKPRAPEKKA | 0.717 ± 0.11
RLNQSKSTKYSE | 0.651 ± 0.012
RLPPPLALDFRP | 0.6308 ± 0.0063
RLPRSPLHPSVP | 0.738 ± 0.016
RLPVIPRLIPSS | 0.635 ± 0.028
RLPVPRSLWSSN | 0.709 ± 0.013
RLRAFSRSVSSP | 0.734 ± 0.11
RLRCRRPKPRRC | 0.682 ± 0.035
RLRRPSSGPFMF | 0.685 ± 0.037
RLSTPPAPQRPS | 0.666 ± 0.013
RLTPLSSSRLPP | 0.6556 ± 0.0043
RLVGCWGRVKFE | 0.6927 ± 0.003

Sequence | protein stability index
RLVGPFSSLRLF | 0.649 ± 0.0072
RLYGCNYAQSRR | 0.712 ± 0.047
RMGWTRCRGGYG | 0.5865 ± 0.0044
RMTRIKKKINKS | 0.719 ± 0.034
RNAGIQVTGQAF | 0.704 ± 0.0079
RNKKKAKKEENR | 0.664 ± 0.048
RNKNYIDEEKER | 0.661 ± 0.037
RNLFRRAPNQGL | 0.723 ± 0.043
RNLPAHQARPDE | 0.6751 ± 0.003
RNNLSLALPREW | 0.725 ± 0.018
RNRYCNLRVGFD | 0.679 ± 0.011
RNTRVSLPPRGQ | 0.63 ± 0.041
RNVKETSNRREL | 0.627 ± 0.11
RPDACTRFGLRV | 0.678 ± 0.013
RPGLWGNEVGGN | 0.735 ± 0.013
RPGNGLTLPTAS | 0.622 ± 0.072
RPKGREKGEGRG | 0.733 ± 0.077
RPLCRSFPPASL | 0.788 ± 0.058
RPLLHPRTGRSH | 0.677 ± 0.014
RPLLPPVLPPPL | 0.684 ± 0.019
RPLLPYHPTRFD | 0.721 ± 0.048
RPLSPPRPPPPS | 0.678 ± 0.014
RPPGPPPPAPFP | 0.711 ± 0.015
RPPHQAPPLPPS | 0.704 ± 0.062
RPPHRRRDKKVS | 0.701 ± 0.031
RPPPPPHRTGDC | 0.607 ± 0.02

Sequence | protein stability index
RPPPPPPPRFPP | 0.706 ± 0.041
RPPPRPASPGSP | 0.634 ± 0.039
RPQHSPSVLVSY | 0.5884 ± 0.005
RPRSPRSLPPPP | 0.541 ± 0.043
RPRVAVPHTSLP | 0.714 ± 0.069
RPSPSLPSPSPP | 0.843 ± 0.081
RPTRPCSTPTAP | 0.78 ± 0.012
RPYLARQTTAPS | 0.6575 ± 0.0033
RQAIGRDTPRDP | 0.649 ± 0.0073
RQGHKRVKISGM | 0.599 ± 0.091
RQKTKRKDQKIK | 0.709 ± 0.023
RQSSPPPRIAPT | 0.6783 ± 0.0057
RRATCYGLGPTM | 0.681 ± 0.013
RRERKARREAPR | 0.682 ± 0.042
RRESTRSRWYEG | 0.762 ± 0.14
RRGAVGAAGLKG | 0.68884 ± 7e-05
RRGEVTQTCGCE | 0.549 ± 0.054
RRGKGERSQFAP | 0.647 ± 0.017
RRLNTRQERSNK | 0.72 ± 0.032
RRLRCNDCPFVV | 0.755 ± 0.085
RRLSGGNLLLLA | 0.5914 ± 0.0018
RRLVLPFSRLLR | 0.656 ± 0.019
RRNGVVGRLGGV | 0.678 ± 0.032
RRNLSVSKRKWP | 0.689 ± 0.014
RRPPVFCIPLFS | 0.639 ± 0.015
RRPSRLLGPERI | 0.717 ± 0.025

Sequence | protein stability index
RRPTKGGPPTLC | 0.67 ± 0.032
RRQWVLEQEGGT | 0.732 ± 0.056
RRRAINIPNNRL | 0.712 ± 0.016
RRRGRAEREPSS | 0.689 ± 0.05
RRRGSLGGVRGN | 0.707 ± 0.058
RRRSGGVIWNRV | 0.669 ± 0.009
RRRTTTNFKVGH | 0.672 ± 0.014
RRRVTVYAPVDS | 0.713 ± 0.015
RRRVWIQQRRKI | 0.5481 ± 0.0053
RRSLSPPRPRYM | 0.7 ± 0.018
RRSTRAGWPGNW | 0.5 ± 0.1
RRTEHPRTRAAR | 0.692 ± 0.045
RRTGGEDKHARP | 0.67 ± 0.02
RRWCVDLAMSFA | 0.646 ± 0.016
RSCGKAYNLLPL | 0.683 ± 0.052
RSDEGHDVLCLY | 0.615 ± 0.083
RSFVEQQCVTYA | 0.628 ± 0.11
RSGCGVVGVWEE | 0.668 ± 0.032
RSGGGVARRSYR | 0.662 ± 0.013
RSGISFGIWVCF | 0.586 ± 0.048
RSGLVRSLPLLL | 0.664 ± 0.069
RSGVRWGGGGGG | 0.711 ± 0.035
RSGWSYRDRGPS | 0.651 ± 0.082
RSICTEGLDIGC | 0.659 ± 0.033
RSLGLGGRGFWG | 0.715 ± 0.099
RSLPPGFPSTLL | 0.652 ± 0.014

Sequence | protein stability index
RSMSQKSRIVSF | 0.67 ± 0.14
RSNVGCDLKQTC | 0.6556 ± 0.0027
RSPPAVSLVTIP | 0.6911 ± 0.0052
RSPPLTPPPCPS | 0.6931 ± 0.005
RSPQPPPSPSSG | 0.692 ± 0.027
RSQICWFFFQCI | 0.53 ± 0.036
RSRNAHAPPLAG | 0.764 ± 0.065
RSRPPVHVAAAL | 0.673 ± 0.074
RSTFSGSSTLVY | 0.568 ± 0.0084
RSTIEHILLFFI | 0.668 ± 0.015
RSVGMFSCRPVW | 0.698 ± 0.017
RSWSSIASSSTM | 0.7285 ± 0.0037
RTAKTSARATTL | 0.705 ± 0.039
RTCRYRRVPAET | 0.729 ± 0.066
RTEATFKTTPVG | 0.687 ± 0.013
RTGTIPAPFHHE | 0.675 ± 0.0074
RTHIKEYKNNKI | 0.647 ± 0.035
RTNGNIKNVNIE | 0.684 ± 0.07
RTNNIAKNSKNR | 0.713 ± 0.058
RTPQPQPVVVRR | 0.776 ± 0.041
RTPQSPRVSVRN | 0.6586 ± 0.0027
RTSKSLSKVESW | 0.6415 ± 0.0031
RTTERLTRWEFG | 0.686 ± 0.03
RTVRRNPHGRPR | 0.6832 ± 0.005
RTWLLRTVFPRL | 0.704 ± 0.024
RVAWAGGGAAGS | 0.667 ± 0.065

Sequence | protein stability index
RVEIKNKKKIRT | 0.696 ± 0.083
RVGGGGGPSGVV | 0.751 ± 0.029
RVGGGGWPSGVV | 0.747 ± 0.047
RVGGGSGGEGRG | 0.6553 ± 0.0043
RVGLGGRPSGGW | 0.64 ± 0.047
RVGLRGGCGSNG | 0.725 ± 0.029
RVHRETLLPTGQ | 0.644 ± 0.036
RVLIPLASSPPL | 0.77 ± 0.23
RVLPASRFSFLF | 0.743 ± 0.036
RVMGWWGARVLG | 0.697 ± 0.027
RVNTFHANKWRW | 0.7134 ± 0.0013
RVPLSPSLRYFV | 0.653 ± 0.026
RVPNLYLRSRKI | 0.68 ± 0.034
RVQELEDGCAAE | 0.658 ± 0.024
RVRGGAGRGKRE | 0.686 ± 0.032
RVRLAPAPASIR | 0.7458 ± 0.0047
RVRVGGPRESGQ | 0.7054 ± 0.00082
RVSVYTFVSLSN | 0.619 ± 0.035
RVSYLLPFCSSV | 0.762 ± 0.11
RVVYANSRVSDN | 0.6479 ± 0.0055
RVWVGGPRESGQ | 0.72118 ± 0.00022
RVYGSFFYVSLL | 0.66 ± 0.13
RWCVGFRLCHDS | 0.636 ± 0.019
RWGPGRSGSRGA | 0.652 ± 0.022
RWGWGGYRGGVP | 0.7572 ± 0.0061
RWLGNPLLQRYH | 0.567 ± 0.043

Sequence | protein stability index
RWLWRLDNRIVI | 0.62081 ± 4.7e-05
RYCSLARSCPSG | 0.678 ± 0.027
RYGTGQLDYCFI | 0.717 ± 0.018
RYHQFSFQSNKS | 0.764 ± 0.072
RYKISKKERIKK | 0.663 ± 0.072
RYKTESKRDIEK | 0.696 ± 0.062
RYLFAAVSFGYA | 0.726 ± 0.032
RYLTLVTNLLCP | 0.647 ± 0.0024
RYPLRPLLLPPP | 0.741 ± 0.16
RYRDSKPDIVDC | 0.723 ± 0.038
RYSPPPPPIPSP | 0.715 ± 0.0022
RYTQQTTATYHN | 0.749 ± 0.079
RYTTCPVLNPGV | 0.618 ± 0.018
RYWCATHIGACL | 0.788 ± 0.093
SAFGGAGVLGHR | 0.6799 ± 0.0027
SAIAVDSPLGRG | 0.653 ± 0.023
SALGPVLCRGSY | 0.675 ± 0.067
SALSLDNLIHSY | 0.676 ± 0.071
SAPALPCQSPRL | 0.696 ± 0.011
SAPCHAHHLPYQ | 0.73 ± 0.026
